# Data as given in PMC3695512, “Recognition of two distinct elements in the RNA substrate by the RNA-binding domain of the T. thermophilus DEAD box helicase Hera”.
# T1: Hera_RBD (Thermus thermophilus, UniProt O07897 424-510)
# T1 sequence: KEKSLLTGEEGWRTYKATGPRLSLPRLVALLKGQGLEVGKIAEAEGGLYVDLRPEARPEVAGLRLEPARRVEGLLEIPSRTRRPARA
# T2: Hera full-length (Thermus thermophilus, UniProt O07897 1-510)
# T2 sequence: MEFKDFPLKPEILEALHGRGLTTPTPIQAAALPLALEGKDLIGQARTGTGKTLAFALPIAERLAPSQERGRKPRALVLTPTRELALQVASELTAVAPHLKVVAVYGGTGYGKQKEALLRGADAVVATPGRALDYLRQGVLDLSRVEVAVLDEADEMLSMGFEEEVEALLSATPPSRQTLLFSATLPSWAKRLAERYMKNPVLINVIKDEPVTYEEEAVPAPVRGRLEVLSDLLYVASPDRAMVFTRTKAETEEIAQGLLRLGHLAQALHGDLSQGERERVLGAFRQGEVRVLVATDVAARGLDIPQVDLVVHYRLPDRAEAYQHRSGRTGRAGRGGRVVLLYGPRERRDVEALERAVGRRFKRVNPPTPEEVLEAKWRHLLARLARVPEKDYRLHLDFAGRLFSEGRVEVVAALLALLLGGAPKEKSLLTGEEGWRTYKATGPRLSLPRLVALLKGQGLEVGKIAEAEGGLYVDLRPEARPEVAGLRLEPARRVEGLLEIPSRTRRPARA
# T3: Hera_RBD_dC-tail (Thermus thermophilus, UniProt O07897 424-491, del492-510)
# T3 sequence: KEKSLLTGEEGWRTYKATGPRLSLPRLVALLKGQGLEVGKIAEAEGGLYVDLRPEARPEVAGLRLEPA
# T4: GST-Hera_RBD (Thermus thermophilus, UniProt O07897 424-510)
# T4 sequence: T1 sequence
# B1: 32/9mer (mixed)
# RNA 1: GCAGGUCCCAAGGGUUGGGCUGUUCGCCCAUU
# RNA 2: UUGGGACCU
# Assays:
# [1] = target: T1, Hera_RBD; test: NMR; core CSPs, none in C-tail; Anisotropy: 50 mM Tris/HCl pH 7.5, 150 mM NaCl, 5 mM MgCl2 (Fig 2), 25 C, 50 nM RNA; EMSA: same Tris/NaCl, 12% glycerol, 25 C; NMR: 25 mM Bis-Tris/HCl pH 6.0, 50 mM NaCl, 10% D2O, 37 C; details: protein: recombinant
# [2] = target: T2, Hera full-length; test: fluorescence anisotropy; 1 uM Hera; complex forms instantaneously; Anisotropy: 50 mM Tris/HCl pH 7.5, 150 mM NaCl, 5 mM MgCl2 (Fig 2), 25 C, 50 nM RNA; EMSA: same Tris/NaCl, 12% glycerol, 25 C; NMR: 25 mM Bis-Tris/HCl pH 6.0, 50 mM NaCl, 10% D2O, 37 C; details: protein: recombinant; chain copies: 2; label: 3'-fluorescein on 9mer; 9 bp duplex (strand 1 nt 3-11) plus 3' hairpin; 5' overhang 2 nt
# [3] = target: T1, Hera_RBD; test: NMR; CSP pattern similar to 21mer; Anisotropy: 50 mM Tris/HCl pH 7.5, 150 mM NaCl, 5 mM MgCl2 (Fig 2), 25 C, 50 nM RNA; EMSA: same Tris/NaCl, 12% glycerol, 25 C; NMR: 25 mM Bis-Tris/HCl pH 6.0, 50 mM NaCl, 10% D2O, 37 C; details: protein: recombinant; hairpin with 5' single strand
# [4] = target: T3, Hera_RBD_dC-tail; test: fluorescence anisotropy; Anisotropy: 50 mM Tris/HCl pH 7.5, 150 mM NaCl, 5 mM MgCl2 (Fig 2), 25 C, 50 nM RNA; EMSA: same Tris/NaCl, 12% glycerol, 25 C; NMR: 25 mM Bis-Tris/HCl pH 6.0, 50 mM NaCl, 10% D2O, 37 C; details: protein: recombinant; label: 5'-fluorescein
# [5] = target: T1, Hera_RBD; test: as above; details: protein: recombinant; label: 5'-fluorescein
# [6] = target: T1, Hera_RBD; test: NMR; Kd1, RBD core resonances (424-493); Anisotropy: 50 mM Tris/HCl pH 7.5, 150 mM NaCl, 5 mM MgCl2 (Fig 2), 25 C, 50 nM RNA; EMSA: same Tris/NaCl, 12% glycerol, 25 C; NMR: 25 mM Bis-Tris/HCl pH 6.0, 50 mM NaCl, 10% D2O, 37 C; details: protein: recombinant; hairpin with 5' single strand
# [7] = target: T1, Hera_RBD; test: NMR; pH 6.0, 50 mM NaCl, 37 C; Anisotropy: 50 mM Tris/HCl pH 7.5, 150 mM NaCl, 5 mM MgCl2 (Fig 2), 25 C, 50 nM RNA; EMSA: same Tris/NaCl, 12% glycerol, 25 C; NMR: 25 mM Bis-Tris/HCl pH 6.0, 50 mM NaCl, 10% D2O, 37 C; details: protein: recombinant
# [8] = target: T1, Hera_RBD; test: ITC; 5 mM Mg2+; estimate, no initial baseline; Anisotropy: 50 mM Tris/HCl pH 7.5, 150 mM NaCl, 5 mM MgCl2 (Fig 2), 25 C, 50 nM RNA; EMSA: same Tris/NaCl, 12% glycerol, 25 C; NMR: 25 mM Bis-Tris/HCl pH 6.0, 50 mM NaCl, 10% D2O, 37 C; details: protein: recombinant; label: none (NMR, ITC); 5'-fluorescein (EMSA); hairpin with 5' single strand
# [9] = target: T4, GST-Hera_RBD; test: EMSA; 6 uM RNA; 12% glycerol; Anisotropy: 50 mM Tris/HCl pH 7.5, 150 mM NaCl, 5 mM MgCl2 (Fig 2), 25 C, 50 nM RNA; EMSA: same Tris/NaCl, 12% glycerol, 25 C; NMR: 25 mM Bis-Tris/HCl pH 6.0, 50 mM NaCl, 10% D2O, 37 C; details: protein: recombinant; tags: N-terminal GST; label: none (NMR, ITC); 5'-fluorescein (EMSA); hairpin with 5' single strand
binder,measurement,setting,value
GGGCC (ssRNA) [5mer],binding result,[1],binds
B1,binding result,[2],binds
GGGUUGGGCUAUUCGCCCAUU (structured_RNA) [21mer_modloop],binding result,[3],binds
GGGC (ssRNA) [4mer],Kd,[4],8 µM
same,Kd,[5],11 µM
CACUUGGGCUGUUCGCCCAUU (structured_RNA) [21mer_mod],Kd,[6],~52.9 µM
GUUGGGCUGUUCGCCCAUU (structured_RNA) [19mer],Kd,[7]; hairpin,~75 µM
GGGUUGGGCUGUUCGCCCAUU (structured_RNA) [21mer],Kd,"[7]; label: none (NMR, ITC), 5'-fluorescein (EMSA), hairpin with 5' single strand",~6 µM
same,Kd,[8],~40 µM
same,Kd,[9],~23 µM
